Changes are numbered by the printed parent chain.
B1: 18E2His2-hIgG1-WT (antibody, V domains shown)
VH: QLQLVESGGGLVQPGGSLRLSCAASGFTFSSYVMHWVRQAPGKGLEWVSSIYHDGSHTYYADFVKGRFTISRDNAKNTLYLQMNSLKSEDTAVYYCASGTSYSGSYYYTDPFFGSWGQGTQVTVSS
VL: NFMLTQPSALSVTLGQTARITCQGDRLGSRYIHWYQQKPPQAPVLVIHDDDRRPSGIPERFSGSSSGGTATLTISGAQAEDDGDYYCQSADSSGNPVFGGGTHLTVL
B2: 18B9His-hIgG1-WT (antibody, V domains shown)
VH: QVQLVESGGGLVQPGGSLRLSCAASGFTFSSYVMSWVRQAPGKGLEWVSSIYSDGSHTYYADSVKGRFTISRDNAKNTLYLQMNSLKSEDTAVYYCAKNLEHYSGSYYYTDPRYDYWGQGTQVTVSS
VL: SSALTQPSALSVTLGQTAKITCQGGSLGSSYVHWYQQKPGQAPVLVIHDGDSRPSGIPERFSGSSSGGTATLTISGAQAEDEDDYYCQSADSSGNAVFGGGTHLTVL
B3: 13E4-hIgG1-WT (antibody, V domains shown)
VH: B1 VH with Q1E, H35S
VL: B2 VL with S1H, L4V, S30N, V32A, H33Y, H48Y, G50D, D83G, S93N

Key:
[1] = molecular target: human immunoglobulin E (hIgE) (human) (UniProt P01854); test: SPR competition, hIgE over hFcεRIα chip, pH 5.5
Sequence of human immunoglobulin E (hIgE) (human) (P01854 whole entry): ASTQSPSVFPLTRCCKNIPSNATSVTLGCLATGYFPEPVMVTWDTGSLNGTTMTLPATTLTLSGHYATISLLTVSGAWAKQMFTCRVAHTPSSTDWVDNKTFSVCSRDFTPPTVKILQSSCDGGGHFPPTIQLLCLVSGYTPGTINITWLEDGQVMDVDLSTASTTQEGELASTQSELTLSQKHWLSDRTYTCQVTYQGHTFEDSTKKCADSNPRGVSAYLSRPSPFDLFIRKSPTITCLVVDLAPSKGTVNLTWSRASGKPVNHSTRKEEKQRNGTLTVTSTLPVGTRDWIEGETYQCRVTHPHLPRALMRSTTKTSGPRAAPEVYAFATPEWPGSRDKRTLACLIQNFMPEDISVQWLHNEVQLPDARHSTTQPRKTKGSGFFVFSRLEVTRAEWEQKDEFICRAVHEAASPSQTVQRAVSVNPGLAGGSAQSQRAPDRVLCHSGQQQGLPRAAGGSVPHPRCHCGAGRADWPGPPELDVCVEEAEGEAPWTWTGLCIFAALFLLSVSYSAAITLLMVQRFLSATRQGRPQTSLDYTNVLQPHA

[2] = molecular target: human immunoglobulin E (hIgE) (human) (UniProt P01854); test: competition ELISA, hIgE to coated hFcεRIα, pH 7.4
[3] = molecular target: human immunoglobulin E (hIgE) (human) (UniProt P01854); test: flow cytometry: inhibition of human IgE binding to hFcεRIα+ bone-marrow-derived mast cells, residual IgE staining (MFI); table head on the sheet reads EC50, the text calls the values IC50; no unit in the table, x axis in µg/ml
[4] = molecular target: human immunoglobulin E (hIgE) (human) (UniProt P01854); test: SPR competition, hIgE over hFcεRIα chip, pH 7.4
[5] = molecular target: human immunoglobulin E (hIgE) (human) (UniProt P01854); test: competition ELISA, hIgE to coated hFcεRIα, pH 6
[6] = molecular target: human IgE pre-bound on human basophils (human) (UniProt P01854); test: cell-based or functional assay
Sequence of human IgE pre-bound on human basophils (human) (P01854 whole entry, chain 1 of 2): as the sequence (P01854 whole entry) above
Sequence of human IgE pre-bound on human basophils (human) (P12319 26-257, chain 2 of 2, further chain): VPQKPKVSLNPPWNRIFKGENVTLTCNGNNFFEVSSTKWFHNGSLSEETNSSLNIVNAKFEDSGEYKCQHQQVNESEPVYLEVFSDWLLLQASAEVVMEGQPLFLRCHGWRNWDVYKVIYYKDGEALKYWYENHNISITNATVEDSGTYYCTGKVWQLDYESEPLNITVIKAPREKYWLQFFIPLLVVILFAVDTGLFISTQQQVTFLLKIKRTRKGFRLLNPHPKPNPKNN

[7] = molecular target: human immunoglobulin E (hIgE) (human) (UniProt P01854); test: SPR competition, hIgE over hFcεRIα chip, pH 7.4; remark: listed apart in the source
[8] = molecular target: human immunoglobulin E (hIgE) (human) (UniProt P01854); test: SPR competition
[9] = molecular target: human immunoglobulin E (hIgE) (human) (UniProt P01854); test: SPR competition, hIgE over hFcεRIα chip, pH 6 (text: pH 5.5)
[10] = molecular target: human immunoglobulin E (hIgE) (human) (UniProt P01854); test: flow cytometry: inhibition of human IgE binding to hFcεRIα+ bone-marrow-derived mast cells, residual IgE staining (MFI); unit inferred, x axis in µg/ml
[11] = molecular target: human immunoglobulin E (hIgE) (human) (UniProt P01854); test: competition ELISA
[12] = molecular target: human immunoglobulin E (hIgE) (human) (UniProt P01854); test: SPR competition, hIgE + mAb over hFcεRIα chip, pH 6 (text: pH 5.5)
[13] = molecular target: human immunoglobulin E (hIgE) (human) (UniProt P01854); test: competition ELISA, biotin-hIgE to coated hFcεRIα, pH 6
[14] = molecular target: human immunoglobulin E (hIgE) (human) (UniProt P01854); test: SPR competition, hIgE + mAb over hFcεRIα chip, pH 7.4
[15] = molecular target: human immunoglobulin E (hIgE) (human) (UniProt P01854); test: competition ELISA, biotin-hIgE to coated hFcεRIα, pH 7.4

Binder | IC50 [1] [mg/L] | IC50 [2] [mg/L] | IC50 [3] [mg/L] | IC50 [4] [mg/L] | IC50 [5] [mg/L] | % of activated basophils (CCR3+CD63+) [6] [%] | IC50 [7] [mg/L] | ratio between IC50 at pH5.5 and pH 7.4 [8] | IC50 [9] [mg/L] | also measured
B1 | 9.86 | 2.48 | 25.7 | 6 | 77.2 | 5 | 1.56 | 6.3 | 6310 | fold reduction of affinity at pH 7.4 against the WT clone [8]: 2.5 fold
B2 | 4.06 | 0.19 |  | 2.7 | 3.02 | 32 | 0.749 | 5.4 | 58.5 | % CD63+ basophils at 20 µg/mL [6]: 12.6%; % CD63+ basophils at 100 µg/mL [6]: 37%; SI (Stimulation Index) at 20 µg/mL [6]: 5.48; SI (Stimulation Index) at 100 µg/mL [6]: 16.1; IC50 [10]: 3.89 mg/L
B3 |  | 0.00681 | 1.44 | 2.3 | 0.0114 | 18 |  |  | 2.5 | Ratio pH 6/7.4 (IC50) [11]: 1.2; IC50 [12]: 1.54 nM; IC50 [13]: 12.9 nM; Ratio pH 6/7.4 (IC50) [8]: 1; IC50 [14]: 1.62 nM; IC50 [15]: 10.3 nM
